Data on 2 substances can be found in patent publication US20090226434A1.

In test [1] the target is Positive Control (Table 3). Briefly: SPR solution competition: soluble CD16a (0-1000 nM) inhibits binding of 10 nM analyte to immobilized His-CD16a.
Test [2] concerns the target wildtype anti-CCR5 antibody (WT Ab, 8% afucosylated). Briefly: SPR solution competition: soluble CD16a (0-1000 nM) inhibits binding of 10 nM antibody to immobilized His-CD16a.
Test [3] addresses afucosylated anti-CCR5 antibody (afucosylated Ab). Described as above.
The target in test [4] is FcγRIIIa (CD16) on Natural Killer (NK) cells (UniProt P08637). Briefly: FACS on NK cells (CD56+) in PBMCs, antibody 20 µg/ml, FITC anti-human IgG (Fc) detection.
Chain of UniProt P08637 (P08637 17-254 limits assumed): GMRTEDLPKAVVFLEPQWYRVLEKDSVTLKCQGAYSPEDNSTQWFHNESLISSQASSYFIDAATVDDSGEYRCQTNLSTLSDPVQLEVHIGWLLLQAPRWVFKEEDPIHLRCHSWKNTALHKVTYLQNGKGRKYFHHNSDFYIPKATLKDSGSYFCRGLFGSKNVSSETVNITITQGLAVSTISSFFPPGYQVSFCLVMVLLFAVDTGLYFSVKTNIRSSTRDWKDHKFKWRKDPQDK

pIC50: −log10 of the molar value. Where only a bound is given, the exact number is not on record here.

For “soluble CD16a (from UniProt P08637 17-208) (receptor)”, the pIC50 in test [1] was 8.00; in test [2], 7.85; in test [3] it was 8.05.
As to “human IgG4 (The Binding Site) (antibody)”, in test [4], the Bmax compared to 100% Bmax for human IgG1 was under 30%.

By pIC50 is commonly meant the negative decadic logarithm of the IC50, by convention in mol/L. A higher pIC50 goes with a small IC50.
